# According to PMC12622308:
# Molecular target: KFERQ-PAmCherry-Flag
# Test: co-IP (IP: HA, IB: Flag), western blot quantification
# Conditions: HEK293T SIRT2KD cells; parent: est. 1.0; read off a plot
substance,measurement,value
HSC70-HA WT (from UniProt P11142) K557R,ratio to parent,1.6
